# Measured values reported in PMC3368898.
# Columns and labels:
# Experiment in all cases: […]; 10 mM Tris pH 7.4, 150 mM NaCl, 1 mM EDTA
# [1] = biological target: Trx–PfC, PfC domain of EPclA (residues 363-426) fused to thioredoxin
# [2] = biological target: Col–PfC fragment, endogenous proteolytic fragment of rEPclA with only the Col and PfC domains (Escherichia coli O157:H7 strain RIMD 0509952 (Sakai))
# [3] = biological target: PfC domain of EPclA (residues 363-426) after removal of thioredoxin by thrombin
# [4] = biological target: PfN–PCoil fragment of EPclA (residues 1-250)
substance,measurement,setting,value
"Trx–PfC, PfC domain of EPclA (residues 363-426) fused to thioredoxin (domain or fragment)",stoichiometry N,[1],3
"Col–PfC fragment, endogenous proteolytic fragment of rEPclA with only the Col and PfC domains (domain or fragment)",stoichiometry N,[2],3
PfC domain of EPclA (residues 363-426) after removal of thioredoxin by thrombin (domain or fragment),stoichiometry N,[3],3
PfN–PCoil fragment of EPclA (residues 1-250) (domain or fragment),stoichiometry N,[4],3
